Experimental data reported in patent publication US20220088145A1.

Experiments:
[1] = target: HLA-DR15 dimer (DR1501) (human); experiment: peptide binding to HLA-DR dimer; EC50 ratio (<20 = high affinity, 20-100 = moderate affinity); method not described
[2] = target: HLA-DR7 dimer (DR0701) (human); experiment: as above

Row | Substance | EC50 Ratio [1] | EC50 Ratio [2]
1 | E. rectale Fla1 p445-464 (peptide) | 4.5 | 
2 | R. Intest. Fla1 p408-427 (peptide) | 4.1 | 5
